Reference: patent US20130079286A1 (Pieris, published 2013)

T1: ovalbumin (UniProt P01012 2-386)
T1 sequence (looked up): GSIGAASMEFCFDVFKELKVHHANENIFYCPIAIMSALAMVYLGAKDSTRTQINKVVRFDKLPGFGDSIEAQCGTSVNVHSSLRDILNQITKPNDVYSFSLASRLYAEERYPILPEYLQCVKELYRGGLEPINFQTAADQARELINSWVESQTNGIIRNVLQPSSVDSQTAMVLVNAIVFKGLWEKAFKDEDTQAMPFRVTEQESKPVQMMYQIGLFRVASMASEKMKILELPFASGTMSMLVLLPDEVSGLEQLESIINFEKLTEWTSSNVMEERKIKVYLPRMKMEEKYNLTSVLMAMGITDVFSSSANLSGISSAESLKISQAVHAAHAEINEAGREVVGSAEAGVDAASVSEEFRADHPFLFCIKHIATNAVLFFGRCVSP


Experiments:
[1] = molecular target: T2, recombinant fibronectin single domain ED-B (human); experiment: SPR (BIAcore X), ED-B amine-coupled; heterogeneous analyte competing reaction model, first set
T2 construct: the entry may be a nucleic acid; also called extra domain-B; extra-domain B
Experimental: (§1) Real time interaction analysis of Lcn2 muteins was performed on a BIAcore X instrument using HBS/ET (20 mM Hepes, pH 7.5, 150 mM NaCl, 1 mM EDTA containing 0.005% (v/v) Tween 20) as running buffer. 100 μg/ml solution of recombinant ED-B in 10 mM Na-acetate, pH 4.0 was immobilized on a CMD 200 m Sensorchip using standard amine coupling chemistry, resulting in a ligand density of about 180 resonance units (RU). The purified Lcn2 mutein was applied at a flow rate of 25 μl/min at concentrations of 2.5 up to 160 nM. The sensorgrams were corrected by subtraction of the corresponding signals measured for the control channel, which had been activated and blocked with ethanolamine. […] In the case of N10D the heterogeneous analyte competing reaction model was used for data fitting, resulting in two sets of kinetic constants.

[2] = molecular target: T3, recombinant human fibronectin fragment FN789 (human, UniProt P02751 1173-1539); experiment: ELISA on coated protein
T3 construct: the entry may be a nucleic acid

BSA = molecular target: T4, BSA (bovine, UniProt P02769 25-607); experiment: ELISA on coated protein
T4 construct: also called bovine serum albumin

[3] = molecular target: T5, recombinant human fibronectin fragment FN7B8 (human, UniProt P02751 1173-1448); experiment: SPR (BIAcore X), FN7B8 amine-coupled (about 500 RU), mutein as analyte
T5 construct: no separate number is printed for the protein, so the entry may be a nucleic acid
Excerpt: (§2) FIG. 13 depicts the kinetic real time analysis of Lcn2 mutein N9B measured on a Biacore instrument. FN7B8 was coupled via amine chemistry to a CMD 200 m sensor chip (ΔRU=500) and the purified Lcn2 mutein was applied at varying concentrations. The measured signal is shown as a grey line whereas the curve fit is depicted as a black line in each case.
as §2, with “14” for “13”, “N7E” for “N9B”
Real time analysis of Lcn2 muteins was performed on a BIAcore X system (BIAcore, Uppsala, Sweden) using HBS/ET (20 mM Hepes, pH 7.5, 150 mM NaCl, 1 mM EDTA containing 0.005% (v/v) Tween 20) as running buffer. 200 μg/ml solution of recombinant FN7B8 in 10 mM Na-acetate, pH 4.0 was immobilized on a CMD 200 m Sensorchip (XanTec bioanalytics, Duesseldorf, Germany) using standard amine coupling chemistry (Biacore, Uppsala, Sweden), resulting in a ligand density of about 500 resonance units (RU). The purified Lcn2 mutein was applied at a flow rate of 25 μl/min at concentrations of 2.5 up to 160 nM. The sensorgrams were corrected by subtraction of the corresponding signals measured for the control channel, which had been activated and blocked with ethanolamine.

[4] = molecular target: T2, recombinant fibronectin single domain …; experiment: SPR (BIAcore X), ED-B amine-coupled; heterogeneous analyte competing reaction model, second set
Experimental: as §1

[5] = molecular target: T5, recombinant human fibronectin fragment …; experiment: ELISA: FN7B8 coated, mutein titrated, detected via Strep-tag II
[6] = molecular target: T2, recombinant fibronectin single domain …; experiment: SPR (BIAcore X), ED-B immobilised by amine coupling, Lcn2 mutein injected at 0 to 160 nM, 1:1 model
Experimental: (§3) FIG. 27 depicts the kinetic real time analysis of Lcn2 variants N7A (A), N7E (B), N9B (C) and N10D (D) measured on a Biacore X instrument. The single fibronectin domain ED-B was coupled via amine chemistry to a CMD 200 m sensor chip (ΔRU=180) and the purified Lcn2 variants were applied at varying concentrations. The measured signals are shown as traces together with the curve fits.
as §1

[7] = molecular target: T2, recombinant fibronectin single domain …; experiment: SPR (BIAcore X), ED-B amine-coupled (about 180 RU), mutein as analyte
Experimental: as §3, §1

[8] = molecular target: T6, biotinylated Aβ40 peptide (human, C-terminal biotin group attached via a lysine spacer); experiment: capture ELISA: mutein captured via Strep-tag II, biotinylated Aβ40 titrated
T6 construct: Synthetic peptide (Peptide Speciality Laboratory) with a C-terminal biotin on a lysine spacer; used in the capture ELISAs
Experimental: (§4) FIG. 19 depicts the binding activity of the Lcn2 muteins H1GA, H1GV, and H1-G1 in capture ELISAs with the biotinylated Aβ targets Aβ40 (A) and Trx-Aβ28 (B). StrepMAB-Immo was immobilized at 10 μg/ml on microtitre plates and employed for capturing of 1 μM Lcn2 muteins via the Strep-tag H. Binding of the biotinylated targets, applied in a dilution series, was then detected by incubation with ExtrAvidin/AP and a subsequent chromogenic reaction with pNPP. […] The data were fitted to a monovalent binding model.

Trx-Aβ28 fusion protein [9] = molecular target: T7, Trx-Aβ28 fusion protein (Escherichia coli (strain K12), UniProt P0AA25 1-76 = thioredoxin, Biotin-labelled through an NHS ester (2:1) in the capture and competitive ELISAs; unlabeled in the direct ELISA and as competitor.); experiment: capture ELISA: mutein captured, biotinylated Trx-Aβ28 titrated
T7 construct: the entry may be a nucleic acid; also called TrxAbeta28H6
Experimental: (§5) FIG. 5 depicts the binding activity of the Lcn2 muteins H1-G1, S1-A4, and US7 in capture ELISAs with different biotinylated Aβ targets. StrepMAB-Immo at 10 μg/ml was immobilized on microtitre plates and employed for capturing of 1 JAM Lcn2 muteins via the Strep-tag H. In figures A to C the binding of the Lcn2 muteins S1-A4 and US7 to (A) biotinylated Aβ40, (B) biotinylated Trx-Aβ28, and (C) biotinylated MBP-Aβ40 are shown. Binding was detected by incubation with ExtrAvidin/AP and a subsequent chromogenic reaction with pNPP. Ovalbumin (Ova), thioredoxin (Trx), and maltose binding protein (MBP) were used as negative controls. Additionally, binding of wild-type (wt) lipocalin was tested. The data were fitted to a monovalent binding model.
(§6) For selective capturing of the Lcn2 muteins carrying the C-terminal Strep-tag II (Schmidt and Skerra (2007) Nat. Protoc. 2, 1528-1535), a 96-well MaxiSorp polystyrene microtitre plate (Nunc, Langenselbold, Germany) was coated with 10 μg/mL StrepMAB-Immo (IBA, Göttingen, Germany) in PBS over night at 4° C. and blocked with 3% (w/v) BSA in PBS/T at room temperature for 1 h. After 3 washing steps with PBS/T, 50 μL of a 1 μM solution of the purified Lcn2 muteins from Example 7 were applied to all wells for 1 h. After washing, 50 μL of a dilution series of the biotinylated targets Aβ40, MBP-Aβ40 or Trx-Aβ28 from Example 2 were added and incubated for 1 h whereby the biotinylated forms of Ova, MBP and Trx from Example 2 served as negative control proteins. The wells were washed again and bound conjugate was detected with 50 μL of ExtrAvidin/AP conjugate (Sigma-Aldrich, Steinheim, Germany) diluted 1:5000 in PBS/T for 1 h, followed by signal development in the presence of 100 μL 0.5 mg/mL p-nitrophenyl phosphate (AppliChem, Darmstadt, Germany) in 100 mM Tris/HCl, pH 8.8, 100 mM NaCl, 5 mM MgCl₂.

[10] = molecular target: T6, biotinylated Aβ40 peptide; experiment: capture ELISA: mutein captured via Strep-tag II on StrepMAB-Immo, biotinylated Aβ40 titrated
Experimental: as §5, §6

Trx-Aβ28 fusion protein [11] = molecular target: T7, Trx-Aβ28 fusion protein; experiment: capture ELISA: mutein captured via Strep-tag II, biotinylated Trx-Aβ28 titrated
Experimental: as §4

Trx-Aβ28 fusion protein [12] = molecular target: T7, Trx-Aβ28 fusion protein; experiment: direct ELISA: Trx-Aβ28 coated, mutein titrated, detected via Strep-tag II
Experimental: The Aβ targets Trx-Aβ28 and MBP-Aβ40 as well as the control protein maltose binding protein (MBP) were immobilized at 2 μM in PBS over night. Bound Lcn2 muteins were detected via their Strep-tag II using Streptavidin/AP followed by a chromogenic reaction with pNPP. As a control, the binding of wild-type (wt) lipocalin was tested. The data were fitted to a monovalent binding model.
Alternatively, for a “direct” ELISA, 2 μM unlabeled Aβ40 target from Example 2 was adsorbed onto a 96-well MaxiSorp polystyrene microliter plate (Nunc, Langenselbold, Germany) and incubated with the purified Lcn2 mutein, which was detected via the Strep-tag II using a 1:1500 dilution of Streptavidin/AP conjugate (GE Healthcare UK Ltd, Buckinghamshire, UK). As a control, 2 μM MBP from Example 2 was adsorbed onto the ELISA plate. Absorption at 405 nm was measured in a SpectraMax 250 reader (Molecular Devices, Sunnyvale, USA).

ovalbumin = molecular target: T1, ovalbumin; experiment: capture ELISA: 1 µM Lcn2 protein captured via Strep-tag II on coated StrepMAB-Immo, biotinylated target titrated, ExtrAvidin/AP + pNPP
Experimental: as §5, §6

T2 sequence (chain, as listed by the source limits assumed): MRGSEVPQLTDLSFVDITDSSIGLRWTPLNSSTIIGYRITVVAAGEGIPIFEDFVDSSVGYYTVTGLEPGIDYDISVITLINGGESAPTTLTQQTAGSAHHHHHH
T5 sequence (P02751 other isoform, or with tags, fused parts or gaps limits assumed): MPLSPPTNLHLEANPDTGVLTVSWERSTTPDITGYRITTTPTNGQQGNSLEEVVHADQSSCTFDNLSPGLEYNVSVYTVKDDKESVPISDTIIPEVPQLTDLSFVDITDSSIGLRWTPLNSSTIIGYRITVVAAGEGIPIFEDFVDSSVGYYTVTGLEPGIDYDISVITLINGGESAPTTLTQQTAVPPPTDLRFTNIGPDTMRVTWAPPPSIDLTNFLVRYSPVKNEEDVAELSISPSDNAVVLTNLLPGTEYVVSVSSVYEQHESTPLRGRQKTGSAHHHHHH
T4 sequence (P02769 25-607 limits assumed): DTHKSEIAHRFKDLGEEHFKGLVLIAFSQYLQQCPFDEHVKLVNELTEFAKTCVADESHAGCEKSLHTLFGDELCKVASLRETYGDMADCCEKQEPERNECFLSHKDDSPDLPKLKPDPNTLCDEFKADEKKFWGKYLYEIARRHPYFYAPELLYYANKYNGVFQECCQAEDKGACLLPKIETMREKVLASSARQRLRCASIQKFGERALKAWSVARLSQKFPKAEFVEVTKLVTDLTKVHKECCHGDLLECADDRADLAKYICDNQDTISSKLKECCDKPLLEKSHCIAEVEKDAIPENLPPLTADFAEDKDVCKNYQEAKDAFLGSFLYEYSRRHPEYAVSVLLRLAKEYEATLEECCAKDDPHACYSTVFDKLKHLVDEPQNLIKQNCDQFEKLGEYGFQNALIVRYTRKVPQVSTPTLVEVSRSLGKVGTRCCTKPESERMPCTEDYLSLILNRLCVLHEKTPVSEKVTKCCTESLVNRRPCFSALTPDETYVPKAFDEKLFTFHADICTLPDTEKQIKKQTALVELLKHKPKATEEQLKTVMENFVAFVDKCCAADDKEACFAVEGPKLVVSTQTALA
T6 sequence (peptide, as listed by the source): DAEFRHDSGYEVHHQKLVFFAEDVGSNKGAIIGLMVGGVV
T3 sequence (P02751 other isoform, or with tags, fused parts or gaps limits assumed): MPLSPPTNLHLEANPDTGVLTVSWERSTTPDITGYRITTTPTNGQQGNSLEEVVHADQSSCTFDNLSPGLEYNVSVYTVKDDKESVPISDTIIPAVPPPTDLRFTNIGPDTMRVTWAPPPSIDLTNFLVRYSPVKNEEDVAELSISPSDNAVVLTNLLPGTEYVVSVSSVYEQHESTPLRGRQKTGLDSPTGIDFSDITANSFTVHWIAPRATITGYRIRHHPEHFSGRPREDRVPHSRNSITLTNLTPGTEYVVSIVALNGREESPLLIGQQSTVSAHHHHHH

Binder | koff [1] | kon [1] | binding result [2] | binding result (BSA) | Kd [3] | koff [3] | kon [3] | koff [4] | kon [4] | Kd [5] | Kd [6] | Kd [7] | koff [7] | kon [7] | Kd [8] | Kd (Trx-Aβ28 fusion protein [9]) | Kd [10] | Kd (Trx-Aβ28 fusion protein [11]) | Kd (Trx-Aβ28 fusion protein [12]) | binding result (ovalbumin)
Lcn2 mutein N10D (designed binder, also called NIOD; NI OD) QDSTSDLIPAPPLSKVPLQQNFQDNQFHGKWYVVGAAGNTWLREDKDPYKMQATIYELKEDKSYNVTNVLFMSKKCRYMIHTFVPGSQPGEFTLGSIKSWPGLTSWLVRVVSTNYNQHAMVFFKRVYQNREFFGITLYGRTKELTSELKENFIRFSKSLGLPENHIVFPVPIDQCIDG | 0.064 s⁻¹ | 621000 M⁻¹ s⁻¹ | no binding | no binding | 38 nM | 0.058 s⁻¹ | 1.5e+06 M⁻¹ s⁻¹ | 0.00335 s⁻¹ | 29400 M⁻¹ s⁻¹ | 51.2 nM | – | – | – | – | – | – | – | – | – | –
Lcn2 mutein N7A (designed binder) QDSTSDLIPAPPLSKVPLQQNFQDNQFHGKWYVVGKAGNHDLREDKDPRKMQATIYELKEDKSYNVTNVRFVHKKCNYRIWTFVPGSQPGEFTLGNIKSWPGLTSWLVRVVSTNYNQHAMVFFKRVYQNRELFEITLYGRTKELTNELKENFIRFSKSLGLPENHIVFPVPIDQCIDG | – | – | no binding | no binding | 5.8 nM | 0.026 s⁻¹ | 4.6e+06 M⁻¹ s⁻¹ | – | – | 14.8 nM | 120 nM | 127 nM | 0.138 s⁻¹ | 1.8e+06 M⁻¹ s⁻¹ | – | – | – | – | – | –
Lcn2 mutein N7E (designed binder) QDSTSDLIPAPPLSKVPLQQNFQDNQFHGKWYVVGEAGNSLLREDKDPRKMYATIYELKEDKSYNVTSVRFRSKKCHYLIRTFVPGSQPGEFTLGLIKSKPGHTSFLVRVVSTNYNQHAMVFFKTVAQNREYFFITLYGRTKELTSELKENFIRFSKSLGLPENHIVFPVPIDQCIDG | – | – | – | – | 7.2 nM | 0.03 s⁻¹ | 4.1e+06 M⁻¹ s⁻¹ | – | – | 30 nM | 17 nM | 17.3 nM | 0.054 s⁻¹ | 3.1e+06 M⁻¹ s⁻¹ | – | – | – | – | – | –
Lcn2 mutein H1-G1 (designed binder, carries a free Cys at position 36) QDSTSDLIPAPPLSKVPLQQNFQDNQFHGKWYVVGCAGNVLLREDKDPLKMYATIYELKEDKSYNVTSVGFDDKKCLYKIRTFVPGSQPGEFTLGRIKSEPGGTSWLVRVVSTNYNQHAMVFFKEVAQNRETFNITLYGRTKELTSELKENFIRFSKSLGLPENHIVFPVPIDQCIDG | – | – | – | – | – | – | – | – | – | – | – | – | – | – | 21.5 nM | 24.3 nM | 16.2 nM | 24.4 nM | 290 nM | no binding
